Laboratory results as given in PMC12752125.

Target: porcine PD-1 (programmed death 1) expressed on HEK293T cells (porcine)
Assay: flow cytometry on cells; HEK293T cells transfected with pcDNA3.1-PD-1 (or empty vector) for 24 h; purified PD-L1-Fc added and incubated for 1 h; percent of positive cells read

Substance: porcine PD-L1-rabbit Fc fusion protein
- percent of cells positive: 38.3%
